The record followed here is US20250188151A1, “C-JUN ANTAGONIST PEPTIDES” (The University of Bath, priority 2022, published 2025).

The term Kd denotes the equilibrium constant for the complex coming apart.

Data set [1] concerns the target T1, cJun bZIP (human, UniProt P05412 252-308, limits assumed).
T1 construct: Purified from a His-SUMO fusion with the tag cleaved off; also called c-Jun bZIP domain; 60 amino acid c-Jun bZIP construct
T1 chain: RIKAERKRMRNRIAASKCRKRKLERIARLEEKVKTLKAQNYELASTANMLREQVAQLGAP
As to the kind of experiment: CD spectra at 20 °C.

The test system of data set [2] is TRE DNA. As to the kind of experiment: CD control: peptide with TRE DNA. It is filed as binding.
Description: Circular Dichroism (CD): An Applied Photophysics Chirascan was used for CD measurements, with a 200 μL sample in a 1 mm path length CD cell. Protein/DNA samples were suspended in 150 mM potassium phosphate, 150 mM potassium fluoride and 5 mM TCEP at pH 7.4 and were equilibrated for 30 minutes before measurement. […] These scans were averaged and converted to molar residue ellipticities (MRE).
For data set [3], the target named is T1, cJun bZIP. Kind of data set: ITC, antagonist injected into cJun, one site model.
Data set [4] has as its target T2, cJun bZIP/TRE DNA interaction (transcriptional block of TRE-mDHFR) (Homo sapiens, UniProt P05412, S292Y).
T2 construct: expressed in transfected cells; host or cells: E. coli BL21 Gold carrying pES300d-TRE-mDHFR and pES230d-cJun bZIP
Kind of data set: Transcription Block Survival (TBS) assay: colony counting and growth competition in E. coli. It is filed as cell-based. The settings on record: vs transcriptionally blocked cells (TRE-mDHFR + cJun bZIP). The text has this:
Library Construction and TBS Assay: Library inserts were produced using PCR fill-in reactions from synthesised primers (Sigma) with degenerate codons at the desired positions to produce the correct residue options. The library was subcloned using SacI and AscI sites into the pET24a plasmid containing A-FosW. The primers used were cJun-Hinge-Lib-F: 5′-[…] TATGCC-3′ (SEQ ID NO: 49) and cJun-Hinge-Lib_R: 5′-[…] GTTC-3′ (SEQ ID NO: 50). The library DNA was transformed into NEB 10-beta electrocompetent E. coli cells. The following equation was utilised to determine library coverage by the number of single colonies: E=100×(1−1/n)^m where E is the percentage of the library missing, m is the number of colonies collected and n is the library size. […] Library DNA quality was assessed by sequencing both the DNA pool and a number of single colonies to show degenerate codons in the correct positions in the pool and to show a diversity of library members from single colonies. The pool of library DNA was transformed into BL21 Gold cells already containing pES300d-TRE-mDHFR and pES230d-cJun bZIP.
Selective pressure is applied by growing the bacteria in M9 minimal media with TMP (2-4 μM) alongside ampicillin, kanamycin and chloramphenicol to maintain the required plasmids, and IPTG (1 mM) to induce protein expression. The library transformants were first plated out onto selective agar plates (2 μM TMP) and grown at 37° C. for 72-96 h. Optimisation experiments (FIG. 5) indicate that 4 μM TMP is optimum for selection however a lower stringency is used initially before selection is increased in later steps. Colonies from this first round of selection were pooled and serially grown in liquid culture at starting OD600 of 0.05 and grown at 37° C. with shaking at 200 rpm until the OD600 reached 0.6. TMP concentration was 2 μM in the first liquid culture passage before it was increased to the optimum 4 μM in subsequent passages. […] At each passage step, a sample of the culture was plated on LB agar (supplemented with antibiotics to maintain plasmids) to select and sequence individual colonies, and a DNA pool was also sequenced. This allows the occurrence of library members to be monitored as winner sequences are selected for. Assay Validation experiments utilised a modified assay methodology whereby overnight cultures from glycerol stocks of the Control Strains (Table 2) were diluted to OD600=0.5 and 50 μL was plated on a selective M9 minimal medium agar plate.
Transcription block survival (TBS) is an intracellular assay that utilises cell survival as a readout. […] This enzyme is absolutely essential for survival since it is required for the production of purines needed for DNA and amino acid synthesis. […]. We produced a mDHFR gene (FIGS. 2 and 3) by rational design to introduce 15 TRE sites into the coding DNA sequence to allow a robust cJun transcriptional block whilst minimising alteration to the expressed protein (TRE-mDHFR). In particular, the resulting TRE-mDHFR construct was produced via two silent and thirteen conservative mutations. […] The accessible surface areas of all other amino acid residues were calculated using the ‘Accessible Surface Area and Accessibility Calculation for Protein’ tool (http://cib.cf.ocha.ac.jp/bitool/ASA/). […]

Data set [5] concerns the target T1, cJun bZIP.
Data set [6] is described as follows: CD spectra and thermal denaturation of peptide-only samples (helicity, homodimer Tm).
Description: Circular Dichroism (CD): An Applied Photophysics Chirascan was used for CD measurements, with a 200 μL sample in a 1 mm path length CD cell. Protein/DNA samples were suspended in 150 mM potassium phosphate, 150 mM potassium fluoride and 5 mM TCEP at pH 7.4 and were equilibrated for 30 minutes before measurement. […] These scans were averaged and converted to molar residue ellipticities (MRE). Thermal denaturation experiments were performed by measuring the ellipticity at 222 nm over a 1 to 90° C. gradient at 1° C. increments. Post-melt scans at 20° C. confirmed the transitions were reversible as they overlaid within 10% of the pre-melt scan.
Circular Dichroism (CD): An Applied Photophysics Chirascan was used for CD measurements, with a 200 μL sample in a 1 mm path length CD cell. Protein/DNA samples were suspended in 150 mM potassium phosphate, 150 mM potassium fluoride and 5 mM TCEP at pH 7.4 and were equilibrated for 30minutes before measurement. […] Thermal denaturation experiments were performed by measuring the ellipticity at 222 nm over a 1 to 90° C. gradient at 1° C. increments. Post-melt scans at 20° C. confirmed the transitions were reversible as they overlaid within 10% of the pre-melt scan.
Peptide helicity was determined by quantifying the CD signal at 222 nm of peptide only samples. Thermal denaturation experiments were then used to determine the Tm of peptide-c-Jun heterodimers, which was used as an approximate measure of target engagement. […] The same 60 amino acid c-Jun bZIP construct was used for all experiments, regardless of antagonist peptide length.
The target in data set [7] is cJun (Homo sapiens, UniProt P05412, S292Y). Kind of data set: CD dimer exchange experiments. As to conditions: A-FosW mixed with preformed HingeW/cJun heterodimer.
Description: Circular Dichroism (CD): An Applied Photophysics Chirascan was used for CD measurements, with a 200 μL sample in a 1 mm path length CD cell. Protein/DNA samples were suspended in 150 mM potassium phosphate, 150 mM potassium fluoride and 5 mM TCEP at pH 7.4 and were equilibrated for 30 minutes before measurement. […] These scans were averaged and converted to molar residue ellipticities (MRE). Thermal denaturation experiments were performed by measuring the ellipticity at 222 nm over a 1 to 90° C. gradient at 1° C. increments.
Data set [8] addresses cJun bZIP (Homo sapiens, UniProt P05412, S292Y). As to the kind of experiment: CD spectra and thermal denaturation of peptide/cJun heterodimers.
Data set [9] has as its target T1, cJun bZIP. As to the kind of experiment: cell-based or functional assay.
The target of data set [10] is T3, HingeW (synthetic construct).
T3 chain: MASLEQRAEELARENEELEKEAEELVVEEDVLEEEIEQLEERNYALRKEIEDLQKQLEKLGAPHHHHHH
As to the kind of experiment: CD, DNA spectrum unchanged. As to conditions: tags: C-terminal 6xHis.

Data set [11] has as its target T4, A-FosW (synthetic construct).
T4 chain: T3 chain with V26E, V27Q, E29L, V31E, E33Q, E34A
As to the kind of experiment: CD, DNA spectrum unchanged. The settings on record: tags: C-terminal 6xHis.

Substitutions are numbered along the chain they refer to. Read-outs that look alike come from different tables or passages of the source.

B1: A-FosW (peptide)
peptide: T3 chain with V26E, V27Q, E29L, V31E, E33Q, E34A
notes: Recombinant, capped and C-terminally 6xHis-tagged; also called rationally designed A-FosW template; parent peptide
As for B1, the Tm (° C.) (CD) was 45.1 ° C. Also, the “increase in α-helicity relative to the average of the two component spectra” value in data set [1] turned out to be 39%. For the same molecule, the “interaction with TRE DNA” value in data set [2] is given as “no interaction”. Further, in data set [3], binding was put at a Kd of 0.0883 µM, the “TΔS (ITC)” value was -26.9 kcal/mol, the “ΔG (ITC)” value is -9.56 kcal/mol and the “ΔH (ITC)” value was -36.5 kcal/mol. Moreover, the “effect on TRE-mDHFR transcriptional block / colony numbers” value in [4] was “restore cell survival”. Moreover, in [5], the “Tm (° C.) (CD)” value was found to be 69.9 ° C and the “ΔTm from component average (CD)” value was found to be 27.5 ° C. In data set [6] (peptide alone), the “Fraction helicity at 20° C. (CD)” value was found to be 40.1%. In addition, the “Tm (° C.) (CD)” value in data set [6] (peptide alone (homodimer)) came to 45.1 °C. In addition, in data set [7], the “dimer exchange” value is “no dimer exchange had occurred”. Besides, in [8] (heterodimer with c-Jun, equimolar, 10 μM total), the “Fraction helicity at 20° C. (CD)” value was 38.7%. For the same molecule, the “temperature of smaller initial transition (double transition)” value in [8] (heterodimer with cJun) was around 30 °C. In addition, the “Tm (° C.) (CD)” value in [8] (heterodimer with cJun bZIP, Example 1) amounted to 69.9 °C. The “ΔTm from component average (CD)” value in [8] (heterodimer with cJun vs average of component profiles) was determined as 27.5 °C. In addition, in data set [9], the “IC50, CD antagonism of cJun/TRE DNA (peak at ~281 nM)” value amounted to 16 µM; the “IC50, EMSA of free TRE DNA band” value was 12.1 µM; the “TBS assay colony numbers relative to TRE-mDHFR only” value turned out to be 60%.

B2: TRE duplex (dsDNA)
DNA 1: GTCAGTCAGTGACTCAATCGGTCA
DNA 2: TGACCGATTGAGTCACTGACTGAC
For B2, the binding result in data set [10] and in [11] was “no binding” throughout.
